This note sets out measurements from publication PMC5341729 (Molecular Biology of the Cell, 2017).

Test [1] addresses T1, MYO10-MYO7A(TAIL)^BAIT (EGFP-MYO10^HMM fused to the tail domain of MYO7A) (UniProt Q13402 858-2215).
T1 sequence: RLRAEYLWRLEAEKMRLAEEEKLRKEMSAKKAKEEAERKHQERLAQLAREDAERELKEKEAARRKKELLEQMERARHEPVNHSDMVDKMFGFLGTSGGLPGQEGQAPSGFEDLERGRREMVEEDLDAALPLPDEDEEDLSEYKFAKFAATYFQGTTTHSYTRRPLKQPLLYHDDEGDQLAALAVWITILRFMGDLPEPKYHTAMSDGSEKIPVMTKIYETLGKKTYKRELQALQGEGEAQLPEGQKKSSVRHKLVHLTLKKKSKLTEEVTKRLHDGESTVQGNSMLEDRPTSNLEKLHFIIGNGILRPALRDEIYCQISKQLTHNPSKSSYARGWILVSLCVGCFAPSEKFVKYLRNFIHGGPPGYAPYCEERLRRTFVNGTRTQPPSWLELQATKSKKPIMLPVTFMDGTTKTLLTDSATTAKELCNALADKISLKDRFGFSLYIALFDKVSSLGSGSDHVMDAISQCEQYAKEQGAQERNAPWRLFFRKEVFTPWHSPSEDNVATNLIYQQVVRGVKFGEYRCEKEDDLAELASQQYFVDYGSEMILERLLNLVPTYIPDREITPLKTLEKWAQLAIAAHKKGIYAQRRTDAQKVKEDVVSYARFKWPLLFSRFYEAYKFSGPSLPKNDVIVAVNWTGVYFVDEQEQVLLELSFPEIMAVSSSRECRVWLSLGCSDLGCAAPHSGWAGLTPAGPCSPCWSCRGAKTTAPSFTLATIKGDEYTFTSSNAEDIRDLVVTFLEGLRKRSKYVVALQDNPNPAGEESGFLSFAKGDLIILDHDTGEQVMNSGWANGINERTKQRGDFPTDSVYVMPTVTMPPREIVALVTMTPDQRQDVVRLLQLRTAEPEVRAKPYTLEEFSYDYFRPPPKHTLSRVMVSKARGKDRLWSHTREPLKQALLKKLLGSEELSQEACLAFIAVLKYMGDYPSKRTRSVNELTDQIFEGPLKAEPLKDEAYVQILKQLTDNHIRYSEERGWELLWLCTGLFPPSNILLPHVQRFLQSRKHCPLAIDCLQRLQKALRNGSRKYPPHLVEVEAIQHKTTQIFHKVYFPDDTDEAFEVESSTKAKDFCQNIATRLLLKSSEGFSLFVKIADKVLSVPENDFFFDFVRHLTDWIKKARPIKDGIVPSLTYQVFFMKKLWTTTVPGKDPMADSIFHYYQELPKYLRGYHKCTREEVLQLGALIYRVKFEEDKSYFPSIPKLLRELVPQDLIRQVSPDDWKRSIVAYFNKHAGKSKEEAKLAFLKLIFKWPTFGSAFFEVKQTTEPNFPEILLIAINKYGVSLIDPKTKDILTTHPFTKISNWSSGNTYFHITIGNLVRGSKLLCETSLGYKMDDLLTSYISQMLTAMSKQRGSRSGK
The test can be described thus: NanoSPD.

For test [2], the target named is T2, MYO10-TPRN^BAIT (taperin fused to MYO10^HMM) (mouse, UniProt A2AI08 1-749).
T2 sequence: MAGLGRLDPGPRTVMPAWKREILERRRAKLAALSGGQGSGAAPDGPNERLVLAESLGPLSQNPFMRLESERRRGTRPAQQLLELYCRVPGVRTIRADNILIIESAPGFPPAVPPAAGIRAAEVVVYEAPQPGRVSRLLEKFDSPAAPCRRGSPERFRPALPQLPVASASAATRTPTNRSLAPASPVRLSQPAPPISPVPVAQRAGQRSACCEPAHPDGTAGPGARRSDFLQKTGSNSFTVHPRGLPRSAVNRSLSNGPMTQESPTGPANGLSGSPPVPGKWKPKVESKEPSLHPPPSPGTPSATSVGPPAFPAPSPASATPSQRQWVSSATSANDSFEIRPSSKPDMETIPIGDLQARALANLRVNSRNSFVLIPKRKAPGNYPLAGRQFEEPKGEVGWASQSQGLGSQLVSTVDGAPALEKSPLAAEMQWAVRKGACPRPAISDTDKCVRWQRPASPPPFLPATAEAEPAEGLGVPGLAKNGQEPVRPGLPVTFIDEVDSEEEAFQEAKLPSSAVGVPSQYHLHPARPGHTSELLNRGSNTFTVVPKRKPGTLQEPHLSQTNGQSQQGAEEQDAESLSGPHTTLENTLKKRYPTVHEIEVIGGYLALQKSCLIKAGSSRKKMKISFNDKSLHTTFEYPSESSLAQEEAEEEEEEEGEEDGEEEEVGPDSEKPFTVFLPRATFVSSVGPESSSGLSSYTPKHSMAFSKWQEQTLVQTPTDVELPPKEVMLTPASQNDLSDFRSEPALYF
Briefly: NanoSPD.

B1: mCherry-MYRIP (MYO7A-Rab interacting protein), MYRIP^PREY (natural protein)
chain: MGRKLDLSGLTDDETEHVLQVVQRDFNLRKKEEERLSELKQKLDEEGSKCSILSKHQQFVEHCCMRCCSPFTFLVNTKRQCGDCKFNVCKSCCSYQKHEKAWVCCVCQQARLLRAQSLEWFYNNVKSRFKRFGSAKVLKNLYRKHRLESGACFDILGGSLFESNLENEGSISGSDSTFYRQSEGHSVMDTLAVALRVAEEAIEEAISKAEAYGDSLDKQNEASYLRDHKEELTEELATTILQKIIRKQKSKSEQQVEEEPGWPHPQSCSTKVADEGTSASPGGYRAPAALWRSQSAFSITGEEALKTPPVEAPSRQPRDQGQHPRAESALPSWKSVDRLDETNLAPVLQSPDGNWVALKDGAPPPTRLLAKPKSGTFQALEVASSVASAYDEMGSDSEEDFDWSEALSKLCPRSRALPRNPQPQPTQAQSSDQGPIAASPSSALSPNPEAMCSDSETSSAGSSREVGHQARLSWLQRKAPRNPAAEKMRLHGELDVNFNPQLASRETSDSSEPEEAPHTTDRRARRWRRARLGSEEPSKEPSSPSAQLRDLDTHQVSDDLSETDISNEARDPQTLTDTTEEKRRNRLYELAMKMSEKETSSGEDQESEPKTESENQKESLSSEDNSQSVQEELKKKFSAVSLCNISTEVLKVINATEELIAGSTGPWESPQVPPDRQKGMFPRGTDQVRLDEQLTSLEENVYLAAGTVYGLETQLTELEDAARCIHSGTDETHLADLEDQVATAAAQVHHAELQISDIESRISALTIAGLNIAPCVRFTRRRDQKQRTQVQTIDTSRQQRRKLPAPPVKAEKIETSSVTTIKTFNHNFILQGSSTNRTKERKGTTKDLMEPALESAVMY
On to B1, for which, in test [1], the “fold increase of prey fluorescence at filopodial tips against MYO10^(NO BAIT)” value came out at 11.8 fold.

B2: CHD4(561-936)^PREY (domain or fragment)
chain: QVMFRNYQRKNDMDEPPSGDFGGDEEKSRKRKNKDPKFAEMEERFYRYGIKPEWMMIHRILNHSVDKKGHVHYLIKWRDLPYDQASWESEDVEIQDYDLFKQSYWNHRELMRGEEGRPGKKLKKVKLRKLERPPETPTVDPTVKYERQPEYLDATGGTLHPYQMEGLNWLRFSWAQGTDTILADEMGLGKTVQTAVFLYSLYKEGHSKGPFLVSAPLSTIINWEREFEMWAPDMYVVTYVGDKDSRAIIRENEFSFEDNAIRGGKKASRMKKEASVKFHVLLTSYELITIDMAILGSIDWACLIVDEAHRLKNNQSKFFRVLNGYSLQHKLLLTGTPLQNNLEELFHLLNFLTPERFHNLEGFLEEFADIAKEDQI
With B2, in test [2], the “fold increase of prey fluorescence at filopodial tips against MYO10^(NO BAIT)” value worked out at 7 fold.
